From paper PMC3139607 come the findings set out here.

Experiment [1] addresses two-domain (2D) soluble CD4 (amino acids 1 to 183) (human). In words: ELISA; hybridoma culture supernatants diluted 1:1 on solid-phase 2D-CD4, gp120 (Ba-L) or the 2D-CD4/gp120 (Ba-L) complex; values qualitative. (In general: In an ELISA, binding on a coated surface is turned into a signal by an enzyme label.)
The target of experiment [2] is 2D-CD4-gp120 (Ba-L) complex (human | HIV-1 isolate Ba-L). The experiment is described as above.

B1: MAb DB81 (antibody, V domains shown)
VH: EVQLQQSGPELVKPGASVKISCKASGYSFTDYTMLWVKQSHGKSLEWIGNINPYYDTTTYNLNFKGKATMTVDKSSSTAYMQLNSLTSEDSAVYYCAREGDYGHPFAYWGQGTLVTVSS
VL: DIVMTQSHKFMSTSVGDRVSITCKASQDVSTTVAWYQQKPGQSPKLLIYSASYRYTGVPDRFTGSGSGTDFTFTISSVQAEDLAVYYCQQHYSTPPTFGGGTKLEIR
On to B1, for which the Binding to CD4 (ELISA reading) in experiment [1] amounted to 1.23. Besides, the Binding to CD4-gp120 (ELISA reading) in experiment [2] came to 2.
